“Also recorded” adds a separate entry of the source.
Experiments:
[1] = in vitro enzymatic assay of levopimaradiene synthase constructs expressed in E. coli BL21(DE3); format: biochemical, Escherichia coli
Protocol: The desired plasmids were prepared by ligating the mutated gene insert into the similarly digested vectors pET32c(+) (Novagen; Madison, Wis.) and pRS426GAL (Hua, 2000), a multiple copy yeast expression vector. These plasmids was expressed in E. coli BL21(DE3) (Novagen; Madison, Wis.). E. coli cells were grown in Luria-Bertani medium supplemented with 100 μg/mL ampicillin at 37° C. with shaking to OD600 ˜0.6. The following parameters were tested: isopropyl 1-thio-β-D-galactopyranoside (IPTG) concentration (50, 100, 250, 500, and 1000 μM); and temperature and time (20° C. for 2, 3, 4, 6, 21 hours, 22° C. for 6, 8, 16, 19, 22, 45 hours, and 30° C. for 3, 6 hours). The following assay conditions were tested to obtain maximum diterpene product yield: 30 mM HEPES (N-2-hydroxyethylpiperazine-N′-[…]), pH 6.9, 7.2, 7.6, 8.0; 30 mM Tris (tris(hydroxymethyl)aminomethane hydrochloride), pH 7.4, 7.8, 8.2; 1, 5, 10% glycerol; 1, 3, 5, 10, 20 mM DTT (dithiothreitol); 20 mM β-mercaptoethanol; 2, 5, 8% Triton X-100; 5% Tween 80; 0, 2, 7.5, 20, 50 mM MgCl2; 0, 30, 500, 1000 μM MnCl2; 2, 10, 13.3, 20, 40, 80, 200 μM GGDP; and 23° C. and 32° C. assay temperatures.
Optimal soluble protein production and diterpene yield were obtained with the following conditions. Cell cultures were induced with 1 mM IPTG at 20° C. with shaking for 6 hours and lysed by sonication in 30 mM HEPES, pH 7.2, 5 mM DTT, and 5% glycerol. The soluble fraction of the lysate (100 mg/mL) was incubated with 20 μM GGDP in 30 mM HEPES, pH 7.2, 5 mM DTT, 5% glycerol, 2 mM MgCl2, and 500 μM MnCl2 overnight at 32° C.
(§1) All in vitro reactions were extracted 3× with hexane and dried over MgSO4. The reaction was further extracted twice with diethyl ether and dried over MgSO4. Thereafter, the crude lysate was suspended in 100 mM Tris, pH 8.0 containing 2.9 units/mg apyrase (a dephosphorylating agent) and 10 units/μL calf intestinal alkaline phosphatase, incubated at 30° C. for 3 hours, and extracted with diethyl ether as noted above (Croteau and Cane, 1985). The crude reaction mixtures were eluted over SiO2, concentrated, and analyzed by GC and GC/MS.
(§2) Gas chromatography spectra were obtained on a Hewlett Packard 6890 Series GC System equipped with an Rtx-5 capillary column (Restek, 30 m×0.25 mm i.d., 0.10 μm df). The following separation conditions and temperature program were employed: injector port 250° C., FID 250° C., split ratio 39:1, helium flow 20 cm/s (0.6 mL/min), 150° C. hold 5 min, increase to 250° C. (5° C./min), hold 5 min. GC/MS spectra were obtained on a Hewlett-Packard 5890A instrument with a 30-m DB-5 ms column (J&W Scientific Inc., 0.25 mm i.d., 0.10 μm df). The following separation conditions and temperature program were employed: injector port 280° C., transfer lines: 280° C., helium flow at 30 cm/s (1 mL/min) with splitless injection at 150° C. hold 3 min, increase to 250° C. (5° C./min), hold 5 min. Mass spectra (m/z 50 to 500) were obtained on a VG ZAB-HF reverse-geometry double-focusing instrument at 70 eV with an electron-impact ion source (200° C.). Accelerating voltage was set to 8 kV and the resolution was 1000 (10% valley).
The skilled artisan recognizes that lysis and assay conditions should be optimized. Examples of parameters that can be adjusted to optimize conditions include altering buffer, pH, reductant, reductant concentration, metal cofactors, cofactor concentrations, glycerol concentrations, substrate concentrations, and assay temperatures. […] Maximum soluble protein production and diterpene yield were obtained with the following conditions. Cell cultures were induced with 1 mM IPTG at 20° C. with shaking for 6 hours and lysed by sonication in 30 mM HEPES, pH 7.2, 5 mM DTT, and 5% glycerol. The soluble fraction of the lysate (100 mg/1 mL) was incubated with 20 μM GGDP in 30 mM HEPES, pH 7.2, 5 mM DTT, 5% glycerol, 2 mM MgCl2, and 500 μM MnCl2 overnight at 32° C. […]

[2] = in vitro assay of levopimaradiene synthase constructs expressed in wild-type S. cerevisiae JBY575; format: biochemical, Saccharomyces cerevisiae; details: wild-type S. cerevisiae JBY575, galactose 48 hours, lysate with GGDP
Protocol: Expression in S. cerevisiae JBY575, which represents wild-type yeast, was observed. JBY575 cells transformed with pRS426GAL inserted with the putative levopimaradiene synthase were grown in synthetic complete medium lacking uracil and supplemented with 2% glucose and 1.5% agar at 30° C. to saturation and induced with galactose for 48 hours. Cells were harvested, resuspended in lysis buffer, and mixed by vortexing over glass beads. The lysate was assayed with 60 μM GGDP in the presence and absence of 0.2% and 5% Triton X-100.
as §1, §2
The skilled artisan recognizes that lysis and assay conditions should be optimized. Examples of parameters that can be adjusted to optimize conditions include altering buffer, pH, reductant, reductant concentration, metal cofactors, cofactor concentrations, glycerol concentrations, substrate concentrations, and assay temperatures. […] Maximum soluble protein production and diterpene yield were obtained with the following conditions. Cell cultures were induced with 1 mM IPTG at 20° C. with shaking for 6 hours and lysed by sonication in 30 mM HEPES, pH 7.2, 5 mM DTT, and 5% glycerol. The soluble fraction of the lysate (100 mg/1 mL) was incubated with 20 μM GGDP in 30 mM HEPES, pH 7.2, 5 mM DTT, 5% glycerol, 2 mM MgCl2, and 500 μM MnCl2 overnight at 32° C. Yeast expression was induced with galactose at 30° C. for 48 hours and the cells were lysed and assayed according to the conditions noted.

EHY18 yeast cells = experiment: in vivo expression of GbLS constructs in yeast strain EHY18 that accumulates GGDP, GC quantitation of products; format: cell-based
Protocol: The yeast strain of the copending application employed was EHY18 (Hart, E., 2001) which was further transformed with multiple-copy yeast expression vectors comprising an isolated and purified nucleic acid sequence of GbLS or derivatives thereof, which are described herein under control of the GAL1 inducible promoter. Yeast cells were grown to saturation in 5 mL ScD-Leu-Ura at 30° C. Cells were harvested (1300×g, 2 min, 25° C.) and resuspended in 500 μL sterile Milli-Q H2O (2×). The washed cells were resuspended in 5 mL sterile Milli-Q H2O. An aliquot of the culture (5 μL) was added to a 25 mL Corex tube containing pre-prepared 2× resin and 5 mL ScG-Leu-Ura (4% galactose) and shaken at 30° C. for 6 days. Resin was collected by filtration through a Kontes chromatography column (1.7 cm diameter) and rinsed with dI H2O until eluent was clear. The resin was incubated in 2 mL ethanol for several minutes, eluted, and repeated 2×. The combined eluents were dissolved in approximately 3 mL dI H2O and extracted (3×) with 3 mL hexane. The combined extracts were concentrated under a stream of nitrogen. GC analysis (quantitation extrapolated from 0.2 mg/mL longifolene external standard) indicated the following product profile (obtained from triplicate measurement of three cultures): 0.61±0.20 mg/L levopimaradiene, 0.04±0.01 mg/L abietadiene, 0.15±0.05 mg/L abietatriene, 0.16±0.13 mg/L (+)-copalol, and 1.79±0.90 mg/L geranylgeraniol. GC/MS fragmentation confirmed the identity of each compound.
A large scale culture (1-L) was prepared by growing the yeast cells to saturation in 5 mL ScD-Leu-Ura at 30° C. Cells were harvested (1300×g, 2 min, 25° C.) and resuspended in 500 μL sterile Milli-Q H2O (2×). The washed cells were resuspended in 5 mL sterile Milli-Q H2O. An aliquot of the culture (1 mL) was added to a 2 L flask containing 1-L ScG-Leu-Ura (4% galactose) and 88.27 g resin in 120 mL Milli-Q H2O (pre-prepared). The resin was eluted with ethanol (3×100 mL with 20 min incubation periods), which was subsequently extracted (6×) with hexane. The combined extracts were dried over magnesium sulfate, filtered, and concentrated under reduced pressure. GC analysis (quantitation extrapolated from 0.2 mg/mL longifolene external standard) indicated the following product profile (obtained from triplicate measurement): 0.29±0.04 mg/L levopimaradiene, 0.04±0.02 mg/L abietadiene, 0.13±0.04 mg/L abietatriene, 0.11±0.02 mg/L (+)-copalol, and 0.56±0.03 mg/L geranylgeraniol. GC/MS analyses confirmed the production of the above noted diterpenes, which included hydrocarbons and an alcohol.
Further optimization studies employed the Ser61 construct. Factors influencing diterpene production included induction period and concentration of galactose and resin in the inducing medium.

Molecule | diterpene product on bacterial expression ([1]; E. coli BL21(DE3), soluble lysate fraction, 20 μM GGDP, overnight at 32° C., GC and GC/MS) | diterpene product on yeast expression [2] | diterpene production relative to wild-type synthase (EHY18 yeast cells; EHY18) | diterpene products on expression in EHY18 (EHY18 yeast cells; GC, GC/MS) | metal cofactor requirement of synthase activity ([1]; MgCl2 and MnCl2 varied) | increase in levopimaradiene yield relative to the bacterial expression system (EHY18 yeast cells; EHY18)
Leu^80: Ginkgo biloba levopimaradiene synthase truncated at Arg^79-Leu^80; amino acid sequence SEQ.ID.NO:37 (protein, listed as Ginkgo biloba) MLNADYHPAVWKDDFIDSLTSPNSHATSKSSVDETINKRIQTLVKEIQCMFQSMGDGETNPSAYDTAWVARIPSIDGSGAPQFPQTLQWILNNQLPDGSWGEECIFLAYDRVLNTLACLLTLKIWNKGDIQVQKGVEFVRKHMEEMKDEADNHRPSGFEVVFPAMLDEAKSLGLDLPYHLPFISQIHQKRQKKLQKIPLNVLHNHQTALLYSLEGLQDVVDWQEITNLQSRDGSFLSSPASTACVFMHTQNKRCLHFLNFVLSKFGDYVPCHYPLDLFERLWAVDTVERLGIDRYFKKEIKESLDYVYRYWDAERGVGWARCNPIPDVDDTAMGLRILRLHGYNVSSDVLENFRDEKGDFFCFAGQTQIGVTDNLNLYRCSQVCFPGEKIMEEAKTFTTNHLQNALAKNNAFDKWAVKKDLPGEVEYAIKYPWHRSMPRLEARSYIEQFGSNDVWLGKTVYKMLYVSNEKYLELAKLDFNMVQALHQKETQHIVSWWRESGFNDLTFTRQRPVEMYFSVAVSMFEPEFAACRIAYAKTSCLAVILDDLYDTHGSLDDLKLFSEAVRRWDISVLDSVRDNQLKVCFLGLYNTVNGFGKDGLKEQGRDVLGYLRKVWEGLLASYTKEAEWSAAKYVPTFNEYVENAKVSIALATVVLNSIFFTGELLPDYILQQVDLRSKFLHLVSLTGRLINDTKTYQAERNRGELVSSVQCYMRENPECTEEEALSHVYGIIDNALKELNWELANPASNAPLCVRRLLFNTARVMQLFYMYRDGFGISDKEMKDHVSRTLFDPVA | produced levopimaradiene as the exclusive diterpene hydrocarbon; also recorded: provided enzymatic activity capable of cyclizing geranylgeranyl diphosphate to levopimaradiene | yielded levopimaradiene as the sole diterpene; also recorded: yielded levopimaradiene synthase activity | approximately four | produced (+)-copalol, levopimaradiene, abietadiene, and abietatriene | – | –
Levopimaradiene synthase: enzyme which catalyzes the synthesis of levopimaradiene from geranylgeranyl diphosphate; SEQ.ID.NO:2 (protein, listed as Ginkgo biloba) MAGVLFANLPCSLQLSPKVPFRQSTNILIPFHKRSSFGFNAQHCVRSHLRLRWNCVGIHASAAETRPDQLPQEERFVSRLNADYHPAVWKDDFIDSLTSPNSHATSKSSVDETINKRIQTLVKEIQCMFQSMGDGETNPSAYDTAWVARIPSIDGSGAPQFPQTLQWILNNQLPDGSWGEECIFLAYDRVLNTLACLLTLKIWNKGDIQVQKGVEFVRKHMEEMKDEADNHRPSGFEVVFPAMLDEAKSLGLDLPYHLPFISQIHQKRQKKLQKIPLNVLHNHQTALLYSLEGLQDVVDWQEITNLQSRDGSFLSSPASTACVFMHTQNKRCLHFLNFVLSKFGDYVPCHYPLDLFERLWAVDTVERLGIDRYFKKEIKESLDYVYRYWDAERGVGWARCNPIPDVDDTAMGLRILRLHGYNVSSDVLENFRDEKGDFFCFAGQTQIGVTDNLNLYRCSQVCFPGEKIMEEAKTFTTNHLQNALAKNNAFDKWAVKKDLPGEVEYAIKYPWHRSMPRLEARSYIEQFGSNDVWLGKTVYKMLYVSNEKYLELAKLDFNMVQALHQKETQHIVSWWRESGFNDLTFTRQRPVEMYFSVAVSMFEPEFAACRIAYAKTSCLAVILDDLYDTHGSLDDLKLFSEAVRRWDISVLDSVRDNQLKVCFLGLYNTVNGFGKDGLKEQGRDVLGYLRKVWEGLLASYTKEAEWSAAKYVPTFNEYVENAKVSIALATVVLNSIFFTGELLPDYILQQVDLRSKFLHLVSLTGRLINDTKTYQAERNRGELVSSVQCYMRENPECTEEEALSHVYGIIDNALKELNWELANPASNAPLCVRRLLFNTARVMQLFYMYRDGFGISDKEMKDHVSRTLFDPVA | – | – | – | – | independent of magnesium but required manganese cofactor for catalysis | three- to six
